Common to all, as to experiment: IEDB peptide-MHC binding, purified MHC/competitive/radioactivity; ≥ and ≤ were set here for values at or beyond the usual limits of such assays
Assay [1] has as its target HLA-A*02:03.
Assay [2] concerns the target HLA-A*02:06.
Assay [3] deals with HLA-A*02:02.
Assay [4] has as its target HLA-A*68:02.
The target of assay [5] is HLA-A*02:01.
The mark [6] stands for this setting: source organism: Mammarenavirus whitewaterense.
Where [7] appears, read: source organism: Influenza A virus.
Where [8] appears, read: source organism: Vaccinia virus WR.
Where [9] appears, read: source organism: Mammarenavirus brazilense.

As for CNYTKFWYV, the IC50 (commonly the concentration that inhibits the measured activity by half) in assay [1] (setting [6]) turned out to be 794 nM; in assay [2] (setting [6]), 35 nM; in assay [3] (setting [6]), 1940 nM; in assay [4] (setting [6]), 247 nM; in assay [5] (setting [6]), 725 nM.

Take VNNAVVMPA: the IC50 in assay [1] (setting [7]) is 712 nM; in assay [2] (setting [7]), 828 nM; in assay [3] (setting [7]) it was 231 nM; in assay [4] (setting [7]) it was 1910 nM; in assay [5] (setting [7]) it was 468 nM.

For ALYSPPLISI, the IC50 in assay [1] (setting [8]) was determined as 150 nM; in assay [2] (setting [8]) it was 162 nM; in assay [3] (setting [8]) it was 1.4 nM; in assay [4] (setting [8]), 323 nM; in assay [5] (setting [8]) it was 1130 nM.

Consider IVYGRSNAI, for which the IC50 worked out at 16 nM in assay [1] (setting [8]); 30 nM in assay [2] (setting [8]); 15 nM in assay [3] (setting [8]); 6.1 nM in assay [4] (setting [8]); 228 nM in assay [5] (setting [8]).

LIYDDNIDSI: the IC50 in assay [1] (setting [8]) came out at 26 nM; in assay [2] (setting [8]) it was 212 nM; in assay [3] (setting [8]) it was 121 nM; in assay [4] (setting [8]), 199 nM; in assay [5] (setting [8]), 658 nM.

Consider LMSFTILCL, for which the IC50 was 16 nM in assay [1] (source organism: SARS-CoV1); 1.8 nM in assay [2] (source organism: SARS-CoV1); 0.27 nM in assay [3] (source organism: SARS-CoV1); 709 nM in assay [4] (source organism: SARS-CoV1); 0.14 nM in assay [5] (source organism: SARS-CoV1).

Consider LLPDALLFTL, for which the IC50 worked out at 733 nM in assay [1] (setting [9]); 79 nM in assay [2] (setting [9]); 4.7 nM in assay [3] (setting [9]); 232 nM in assay [4] (setting [9]); 77 nM in assay [5] (setting [9]).

For VVISVIFYFI, the IC50 in assay [1] (setting [8]) came to 755 nM; in assay [2] (setting [8]), 542 nM; in assay [3] (setting [8]), 239 nM; in assay [4] (setting [8]) it was 583 nM; in assay [5] (setting [8]), 616 nM.

With GLYIPGTSV, the IC50 in assay [1] (setting [8]) came out at 17 nM; in assay [2] (setting [8]), 1740 nM; in assay [3] (setting [8]) it was 111 nM; in assay [4] (setting [8]), 904 nM; in assay [5] (setting [8]), 75 nM.

NIGCAVNTPV: the IC50 in assay [1] (setting [8]) worked out at 30 nM; in assay [2] (setting [8]) it was 176 nM; in assay [3] (setting [8]) it was 126 nM; in assay [4] (setting [8]) it was 11 nM; in assay [5] (setting [8]), 23 nM.

Consider AADLTQIFEV, for which the IC50 in assay [1] (setting [8]) was determined as 404 nM; in assay [2] (setting [8]), 11 nM; in assay [3] (setting [8]), 1240 nM; in assay [4] (setting [8]) it was 4350 nM; in assay [5] (setting [8]), 17 nM.

For IMQVFFGYFA, the IC50 in assay [1] (source organism: SARS-CoV1) was determined as 1570 nM; in assay [2] (source organism: SARS-CoV1), 51 nM; in assay [3] (source organism: SARS-CoV1), 590 nM; in assay [4] (source organism: SARS-CoV1), 4500 nM; in assay [5] (source organism: SARS-CoV1), 290 nM.

As to IVYGRSNAIL, the IC50 in assay [1] (setting [8]) was found to be 33 nM; in assay [2] (setting [8]), 424 nM; in assay [3] (setting [8]), 92 nM; in assay [4] (setting [8]) it was 642 nM; in assay [5] (setting [8]) it was 724 nM.

As for ILSCIFAFI, the IC50 was determined as 3.1 nM in assay [1] (setting [8]); 8.8 nM in assay [2] (setting [8]); 0.79 nM in assay [3] (setting [8]); 1.3 nM in assay [4] (setting [8]); 1.8 nM in assay [5] (setting [8]).

TIDAINKCV: the IC50 was found to be 634 nM in assay [1] (setting [8]); 406 nM in assay [2] (setting [8]); 90 nM in assay [3] (setting [8]); 222 nM in assay [4] (setting [8]); 783 nM in assay [5] (setting [8]).

As for MAAAKTPVI, the IC50 in assay [1] (setting [8]) is 209 nM; in assay [2] (setting [8]), 672 nM; in assay [3] (setting [8]), 259 nM; in assay [4] (setting [8]), 16 nM; in assay [5] (setting [8]), 1370 nM.

As for IISLFYTFAI, the IC50 in assay [1] (setting [8]) worked out at 44 nM; in assay [2] (setting [8]), 146 nM; in assay [3] (setting [8]), 108 nM; in assay [4] (setting [8]), 144 nM; in assay [5] (setting [8]) it was 290 nM.

For WISDNTHIYL, the IC50 is 1.2 nM in assay [1] (setting [8]); 1.8 nM in assay [2] (setting [8]); 0.14 nM in assay [3] (setting [8]); 4.8 nM in assay [4] (setting [8]); 12 nM in assay [5] (setting [8]).

As to DVLPFDIKYI, the IC50 was 188 nM in assay [1] (setting [8]); 1110 nM in assay [2] (setting [8]); 1200 nM in assay [3] (setting [8]); 361 nM in assay [4] (setting [8]); 183 nM in assay [5] (setting [8]).

With IISYIILFIL, the IC50 worked out at 489 nM in assay [1] (setting [8]); 3930 nM in assay [2] (setting [8]); 66 nM in assay [3] (setting [8]); 2090 nM in assay [4] (setting [8]); 580 nM in assay [5] (setting [8]).

Take MLFTKFFYL: the IC50 in assay [1] (source organism: SARS-CoV1) is 17 nM; in assay [2] (source organism: SARS-CoV1), 1.4 nM; in assay [3] (source organism: SARS-CoV1) it was 0.085 nM; in assay [4] (source organism: SARS-CoV1), 0.056 nM; in assay [5] (source organism: SARS-CoV1), 0.17 nM.

With AVITETIPI, the IC50 stood at 43 nM in assay [1] (setting [8]); 6.5 nM in assay [2] (setting [8]); 324 nM in assay [3] (setting [8]); 60 nM in assay [4] (setting [8]); 467 nM in assay [5] (setting [8]).

As to IVVALSSLV, the IC50 was 3.9 nM in assay [1] (setting [8]); 8.2 nM in assay [2] (setting [8]); 27 nM in assay [3] (setting [8]); 5.4 nM in assay [4] (setting [8]); 108 nM in assay [5] (setting [8]).

As to IICEDAMYYA, the IC50 in assay [1] (setting [8]) was determined as 108 nM; in assay [2] (setting [8]) it was 8.8 nM; in assay [3] (setting [8]), 24 nM; in assay [4] (setting [8]), 746 nM; in assay [5] (setting [8]) it was 23 nM.

The values above are taken from the Immune Epitope Database (IEDB).
